Positions count from the first letter of the chain named. Positions of bridges follow the written chain, without caps; N, C: chain ends. No end group written: not given here.
T1: mouse delta opioid receptor (mORD1, msl-2) (Mus musculus)
T1 chain: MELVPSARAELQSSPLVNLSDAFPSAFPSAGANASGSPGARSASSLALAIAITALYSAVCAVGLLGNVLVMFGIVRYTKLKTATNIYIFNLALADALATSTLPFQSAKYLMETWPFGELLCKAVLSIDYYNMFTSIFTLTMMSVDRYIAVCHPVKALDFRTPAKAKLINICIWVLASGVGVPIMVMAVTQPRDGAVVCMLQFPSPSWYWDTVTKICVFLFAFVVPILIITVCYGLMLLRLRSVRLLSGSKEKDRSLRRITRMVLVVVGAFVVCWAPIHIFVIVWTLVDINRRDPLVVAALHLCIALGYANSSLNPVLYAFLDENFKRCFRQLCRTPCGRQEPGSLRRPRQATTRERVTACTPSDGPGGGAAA

T2: rat mu opioid receptor (Rattus norvegicus, UniProt P33535)
T2 chain: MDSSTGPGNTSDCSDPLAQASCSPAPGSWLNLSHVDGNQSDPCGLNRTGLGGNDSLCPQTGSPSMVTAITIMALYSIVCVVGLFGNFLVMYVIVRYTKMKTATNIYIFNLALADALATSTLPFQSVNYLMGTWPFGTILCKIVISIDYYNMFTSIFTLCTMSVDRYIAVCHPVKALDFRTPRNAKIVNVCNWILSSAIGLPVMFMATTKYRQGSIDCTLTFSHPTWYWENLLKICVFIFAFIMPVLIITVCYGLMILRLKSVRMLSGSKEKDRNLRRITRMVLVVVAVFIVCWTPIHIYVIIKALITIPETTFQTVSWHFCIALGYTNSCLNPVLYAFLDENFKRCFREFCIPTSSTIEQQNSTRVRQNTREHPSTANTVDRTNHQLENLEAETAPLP

T3: delta opioid receptor D128N mutant (Mus musculus)
T3 chain: T1 chain with D128N

T4: MOP2 (Mus musculus)
T4 chain: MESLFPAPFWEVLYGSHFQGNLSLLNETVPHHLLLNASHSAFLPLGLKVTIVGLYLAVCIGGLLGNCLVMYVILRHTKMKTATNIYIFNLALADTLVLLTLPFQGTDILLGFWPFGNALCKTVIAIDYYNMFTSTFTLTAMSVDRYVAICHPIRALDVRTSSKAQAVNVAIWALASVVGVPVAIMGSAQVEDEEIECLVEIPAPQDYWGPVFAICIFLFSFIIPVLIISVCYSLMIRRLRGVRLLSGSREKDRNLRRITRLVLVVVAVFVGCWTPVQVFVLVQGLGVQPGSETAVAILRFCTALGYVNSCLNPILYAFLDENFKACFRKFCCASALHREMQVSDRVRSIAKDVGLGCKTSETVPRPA

T5: mouse kappa opioid receptor (mORK1, msl-1) (Mus musculus)
T5 chain: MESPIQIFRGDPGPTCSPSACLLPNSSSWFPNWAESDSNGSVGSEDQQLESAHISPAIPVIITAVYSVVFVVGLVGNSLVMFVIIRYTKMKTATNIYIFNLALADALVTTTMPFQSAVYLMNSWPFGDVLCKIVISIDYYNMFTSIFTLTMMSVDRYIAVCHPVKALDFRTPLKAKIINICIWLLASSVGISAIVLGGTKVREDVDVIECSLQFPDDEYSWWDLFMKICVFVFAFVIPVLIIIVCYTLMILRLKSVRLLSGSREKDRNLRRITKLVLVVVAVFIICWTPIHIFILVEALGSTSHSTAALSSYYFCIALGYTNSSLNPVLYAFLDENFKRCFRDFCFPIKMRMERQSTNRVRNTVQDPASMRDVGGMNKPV

B1: beta-Endorphin (protein)
chain: WCLESSQCQDLTTESNLLECIRACKPDLSAETPMFPGNGDEQPLTENPRKYVMGHFRWDRFGRRNSSSSGSSGAGQKREDVSAGEDCGPLPEGGPEPRSDGAKPGPREGKRSYSMEHFRWGKPVGKKRRPVKVYPNGAEDESAEAFPLEFKRELTGQRLREGDGPDGPADDGAGAQADLEHSLLVAAEKKDEGPYRMEHFRWGSPPKDKRYGGFMTSEKSQTPLVTLFKNAIIKNAYKKGE
B2: SRIF (peptide)
chain: SANSNPAMAPRERKAGCKNFFWKTFTSC
modifications: disulfide 17-28 (inferred)

Columns and labels:
[1] = target: T1, mouse delta opioid receptor (mORD1, …); assay: competition
rat mu opioid receptor = target: T2, rat mu opioid receptor; assay: competition
[2] = target: T3, delta opioid receptor D128N mutant; assay: other (direct radioligand binding)
MOP2 = target: T4, MOP2; assay: other (direct radioligand binding)
[3] = target: T1, mouse delta opioid receptor (mORD1, …); assay: competition
[4] = target: T5, mouse kappa opioid receptor (mORK1, …); assay: competition

Binder | Ki [1] [nM] | Ki (rat mu opioid receptor) [nM] | binding result [2] | binding result (MOP2) | IC50 [3] [nM] | IC50 [4] [nM]
B1 | 1 | 1 | no binding | no binding | – | –
B2 | – | – | – | – | > 1000 | > 1000

Source: patent US7235366 (dated 2007)
